Experimental data as given in publication PMC5353710, “Structural insights into the γ-lactamase activity and substrate enantioselectivity of an isochorismatase-like hydrolase from Microbacterium hydrocarbonoxydans” (Scientific Reports, 2017).

How the values were obtained:
[1] = substrate: O=C1N[C@@H]2C=C[C@H]1C2; experiment: purified protein; settings: 50 mM Tris-HCl pH 7.5, 25 °C, substrate 5 to 200 mM
[2] = substrate: O=C1N[C@H]2C=C[C@@H]1C2; experiment: purified protein; settings: 50 mM Tris-HCl pH 7.5, 25 °C, substrate 5 to 200 mM

B1: MhIHL (Mh33H4-5540) (Microbacterium hydrocarbonoxydans) (protein)
chain: MAAPRRTVVLAIDLQAGVTPGCFDEEGVLSRAAALVERARAGGVPVVWVHHDPVGVGTPEWELAAPLHRAEGEPLVRKNYRDSFADTTLRETLDELGATHLVITGAQSDFCVRTTMQRAAAEGYDVTLVSDAHTTVDTEWEGVRISGEQIVAHTNMYFSGLRYPGQEFVIATHDHVAL
With B1 the Km [1] was 12.9 mM, the kcat [1] was 203 s⁻¹ and the kcat/Km [1] was 15800 M⁻¹ s⁻¹. For the same protein, the Km [2] was 34.2 mM, the kcat [2] was 19.8 s⁻¹ and the kcat/Km [2] was 580 M⁻¹ s⁻¹.
